Assay results taken from US12648985B2, “Immunotherapeutic for prostate cancer treatment” (Hexamer Therapeutics, Inc., priority 2019, dated 2026).
Entries after “also recorded” stand apart in the source; their conditions may differ.

Experiments:
GnRH = assay: anti-GnRH IgG endpoint titers by ELISA in sera of immunized mice; format: in vivo; details: BALB/cJ mice
Description: B-cell function: Standard ELISA was used to measure therapeutic efficacy by GnRH-specific antibody titer in the collected mouse sera. ELISA plates were coated with GnRH-BSA conjugate and 8 sequential 10-fold dilutions (from 1:10^3 to 1:10^10) of sera in blocking buffer were made and added to the ELISA plate wells. An HRP-labeled anti-mouse secondary antibody was added and the plates developed with a colorimetric substrate and measured in an ELISA plate reader. Data were plotted, curve fitted, and statistically analyzed using Prism Graph Pad software for calculating mid- and end-point titers.
(§1) Constructs 1-7 (1 and 10 ug) were adjuvanted with a monophosphoryl lipid-A/squalene-based adjuvant and injected into BALB/cJ mice. Each construct is injected into 5 mice (n=5 per construct). After 14, 28, and 42 days, mouse sera were obtained to measure anti-GnRH IgG endpoint titers by ELISA using dilutions from […] (sequential 10-fold dilutions). […] Testosterone was extracted from the sera, derivatized, and separated and quantified by LC-MS/MS.
The solid line in the group of dots is the geometric mean and the error bars are the geometric standard deviation. Two doses were chosen for this study: 1 and 10 ug. IgG titers reached maximum levels 42 days following prime immunization.

testosterone = assay: serum testosterone by LC-MS/MS in immunized mice; format: in vivo; details: BALB/cJ mice
Description: as §1
A castrate T level is shown by the dotted line.

B1: construct 5: scaffold peptide (SEQ ID NO: 67): GnRH peptide and TCE2 at N- and C-terminus of the monomeric peptide, self-assembled (peptide)
chain: GQHWSYGLRPGGDIRSIGKEIRSIGREIKSIGREIRSIGRGPGPFNNFTVSFWLRVPRVSASHLEQY
modifications: also: self-assembled
**Q.** How did the “anti-GnRH IgG antibody titers, rank among the constructs” value (GnRH; FIG. 3) turn out when B1 was run?
**A.** The value was “highest titers or induced high titers sooner”.

B2: construct 2: GnRH peptide immunogen (SEQ ID NO: 70) conjugated to the TCE3-Hex-TCE4 hexamer scaffold peptide (SEQ ID NO: 68) (conjugate)
chain 1: QHWSYGLRPGDGEGC
chain 2: GQEAFSHIRIPLPHDIRSIGKEIRSIGREIRSIGKEIRSIGREFQDAYNAAGGHNAVF
modifications: conjugated; GnRH; TCE3_Hex_TCE4
**Q.** How did the “inducing castrate levels of T compared with KLH+GnRH (positive control)” value (testosterone; FIGS. 4-6) turn out when B2 was run?
**A.** Its value is “about the same as KLH+GnRH”.

**Q.** And the “testosterone (T) levels induced” value (testosterone; by d42, FIG. 6)?
**A.** Its value is “castrate levels of T”.

**Q.** What about the “anti-GnRH IgG antibody titers, 1 ug versus 10 ug dose” value (GnRH; 1 and 10 ug, monophosphoryl lipid-A/squalene-based adjuvant, FIG. 3) of the same molecule?
**A.** Its value is “equal antibody titers at both 1 and 10 ug”.

**Q.** What about the “anti-GnRH IgG antibody titers, rank among the constructs” value (GnRH; FIG. 3, listed as TCE3-Hex-TCE4+GnRH) of the same molecule?
**A.** The value was “highest antibody titers; also recorded: highest titers or induced high titers sooner”.

**Q.** And the “inducing IgG titers compared with KLH+GnRH (positive control)” value (GnRH; FIGS. 4-6)?
**A.** Its value is “about the same as KLH+GnRH”.

**Q.** What about the “anti-GnRH IgG titers, d28 versus d42” value (GnRH; days post-prime immunization, FIG. 3) of the same molecule?
**A.** Its value is “almost equal levels between d28 and d42”.
